Patent publication US4585754A, “Stabilization of proteins and peptides by chemical binding with chondroitin” (Valcor Scientific, Ltd., priority 1984, dated 1986)

Assays:
trypsin = experiment: stability against proteolytic digestion by trypsin; type: in vitro ADME; settings: 50 mcg./ml. trypsin, pH 7.8, 23 C, 10 mg./ml., after just over forty minutes
Procedure: (§1) The SOD-chondroitin sulfate A product was tested for stability against proteolytic digestion. An aqueous solution containing 10 mg./ml. of the product was incubated with 50 mcg./ml. of trypsin at pH 7.8 and 23 C, and aliquots were withdrawn from time to time and the SOD activity determined. For comparison, SOD alone with incubated with trypsin under the same conditions. After just over forty minutes, approximately 88 percent of the SOD-chondroitin product remained in the solution, compared with only about 8 percent of the unprotected SOD. This is a difference in stability of over eight-fold.

pepsin = experiment: stability against proteolytic digestion by pepsin; type: in vitro ADME; settings: pepsin 500 ng./ml., pH 3.5, at two minutes
Procedure: as §1
Inasmuch as trypsin is known to be a very specific protease, cleaving only at the arginine and lysine residues, a further test was carried out according to substantially the same procedure using pepsin, a much more vigorous protease. The pH was kept low (3.5), since the optimum pH for pepsin is known to about 1.0-1.5. Even at the lowest concentration of pepsin tested (500 ng./ml.), digestion was very fast, but there was some degree of protection by the chondroitin compared with unprotected SOD.

[1] = native, unmodified protein; cited from earlier work
blood glucose levels = experiment: lowering blood glucose levels in mice, bound versus free insulin; type: in vivo, Female CD-1 Swiss white mice; settings: subcutaneous, fasted mice
Procedure: Female CD-1 Swiss white mice averaging 20 g in weight were fasted overnight and used in groups of four. The insulins were injected subcutaneously, and blood specimens (50 microliters, by retro-orbital bleeding) were taken at intervals of 0.5, 3, 6, and 24 hours.

Row | Substance | percent remaining in the solution (SOD activity) (trypsin) | SOD remaining after pepsin digestion (pepsin) | half-life in the body [1] | blood glucose level at 24 hours (blood glucose levels; all dose levels, 24 hours) | comatose state (blood glucose levels; doses of 5.7 micrograms and above)
1 | superoxide dismutase [unprotected SOD] | about 8% | essentially all destroyed | about five |  | 
2 | insulin [free insulin] |  |  | about 15 minutes | significant rebound glucose level by 24 hours | comatose in one-half hour
